Data on seven substances can be found in publication PMC9182292.

In this assay the target is human 6His-14-3-3ζ (human) (UniProt P63104). As to the kind of experiment: pull-down; 6His-14-3-3ζ (0.1 mg) immobilised on Ni-NTA resin, 300 μL lysate of HEK293 cells expressing SNAP-TM reporters overnight at 4°C, 1% Triton X-100 in PBS with 25 mM imidazole; blot for the SNAP-tag, amount pulled down normalised to CT_(598-910), CT_(731-910) or untreated control; in some samples cells were treated before lysis with staurosporine (three hours) or more specific kinase inhibitors.
Sequence of UniProt P63104 (P63104 whole entry): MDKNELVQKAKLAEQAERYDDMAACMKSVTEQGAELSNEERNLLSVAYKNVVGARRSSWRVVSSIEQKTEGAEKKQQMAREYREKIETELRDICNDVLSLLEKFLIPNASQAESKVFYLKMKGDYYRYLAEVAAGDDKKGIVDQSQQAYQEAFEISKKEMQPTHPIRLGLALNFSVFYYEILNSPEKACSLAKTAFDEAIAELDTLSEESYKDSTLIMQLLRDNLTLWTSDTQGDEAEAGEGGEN

In the case of “SNAP-TM-HCN1CT reporter CT_(731-910) (from UniProt O88704 731-910) (domain or fragment)”, the fold of reporter pulled down compared to CT (598-910) came to 1.39 fold, the fold of reporter pulled down from cells treated with the PKC inhibitor bisindolylmaleimide I compared to untreated control stood at 0.61 fold, the fold of reporter pulled down from cells treated with the p38MAPK inhibitor PD 169316 compared to untreated control came out at 0.61 fold and the fold of reporter pulled down from staurosporine-treated cells compared to untreated control came to 0.26 fold. For “SNAP-TM-HCN1CT reporter CT_(731-910; S810A; S867A) (from UniProt O88704 731-910) (domain or fragment)”, the fold of reporter pulled down compared to CT (731-910) came to 0.33 fold. Still for that read-out and setting: with “SNAP-TM-HCN1CT reporter CT_(731-910; Δ804–814; Δ861–871) (from UniProt O88704 731-910) (domain or fragment)” the figure was 0.26 fold.

For the substance “SNAP-TM-HCN1CT reporter lacking the distal 30 amino acid block with the TRIP8b-tripeptide binding site (from UniProt O88704 598-880) (domain or fragment)”, the fold of reporter pulled down compared to CT (598-910) was found to be 1.18 fold.

As to “SNAP-TM-HCN1CT reporter serially truncated to also lack the region containing peptide B (residues 790-820) (from UniProt O88704 598-790) (domain or fragment)”, the fold of reporter pulled down compared to CT (598-910) is 0.23 fold. Still for that read-out and setting: with “SNAP-TM-HCN1CT reporter serially truncated to lack the region containing peptide C (amino acids 850-880) (from UniProt O88704 598-850) (domain or fragment)” the figure was 0.61 fold. Same read-out and setting: with “SNAP-TM-HCN1CT reporter with loss of residues 803-910 (from UniProt O88704 598-802) (domain or fragment)” the figure was 0.2 fold.
